# Test results: patent publication US20210032364A1
# How the values were obtained:
# [1] = target: Na+/K+ ATPase α-1 on mouse Lewis Lung LL/2 cancer cells (mouse) (UniProt Q8VDN2); assay: flow cytometry, 5 µg/ml, EDTA-treated intact mouse LL/2 cells
# [2] = target: Na+/K+ ATPase α-1 on mouse Lewis Lung LL/2 cancer cells (mouse) (UniProt Q8VDN2); assay: flow cytometry, 5 µg/ml, trypsin-treated intact mouse LL/2 cells
# [3] = target: Na+/K+ ATPase α-1 on mouse Lewis Lung LL/2 cancer cells (mouse) (UniProt Q8VDN2); assay: flow cytometry, 5 µg/ml, EDTA-treated permeabilized mouse LL/2 cells
substance,measurement,setting,value
"mAb to Na+/K+ ATPase α-1 (Abcam, Cat. No. ab2826) (antibody)",% cells stained,[1],29.9%
same,% cells stained,[2],20.5%
same,% cells stained,[3],63.8%
